This note sets out measurements from PMC2700083, “A covalent peptide inhibitor of RGS4 identified in a focused one-bead, one compound library screen” (BMC Pharmacology, 2009).

Like-named read-outs stand apart in the source and are kept apart here. Bridges are numbered along the chain shown (N, C = ends).

Common to all, as to assay: FCPIA (flow cytometry protein interaction assay, Luminex beads); dose curves of 5nd on RGS4 cysteine mutants (5 nM, or 20 nM for the mutants with no Cys in the domain or the C-terminus) and labeled Gαo; curves constrained to 100% and 0%
Assay [1] has as its target MBP-RGS4Δ51N -7C mutant (all 7 cysteines removed) (UniProt P49799).
For assay [2], the target named is MBP-RGS4Δ51N A132C in the -7C (UniProt P49799).
Assay [3] has as its target MBP-RGS4Δ51N A148C in the -7C (UniProt P49799).
The target of assay [4] is MBP-RGS4Δ51N A71C in the -7C (UniProt P49799).
Assay [5] deals with MBP-RGS4Δ51N A95C in the -7C (UniProt P49799).
Assay [6] deals with MBP-RGS4Δ51N with no Cys in the C-terminus (UniProt P49799).
For assay [7], the target named is MBP-RGS4Δ51N with no Cys in the RGS domain (UniProt P49799).
Assay [8] addresses MBP-RGS4Δ51N with no Cys in the C-terminus (UniProt P49799). The source holds these as a separate data set.

B1: Peptide 5nd (Tyr-Trp-c[Cys-Lys-Gly-Leu-Cys]-Lys-NH2, S-S) (peptide)
peptide: H-YWCKGLCK-NH2
modifications: disulfide 3-7
SMILES: CC(C)C[C@@H]1NC(=O)CNC(=O)[C@H](CCCCN)NC(=O)[C@@H](NC(=O)[C@H](Cc2c[nH]c3ccccc23)NC(=O)[C@@H](N)Cc2ccc(O)cc2)CSSC[C@@H](C(=O)N[C@@H](CCCCN)C(N)=O)NC1=O
With B1, the logIC50 in assay [1] was -3.24 log M; in assay [2], -3.41 log M; in assay [3], -3.51 log M; in assay [4], -3.2 log M; in assay [5], -3.58 log M; in assay [6] it was -4.39 log M. Besides, the values for the logIC50 in assay [7] and in assay [8] were -3.8 log M and -4.5 log M, respectively.
